In one data set the test system is MIA PaCa-2 cells. Put plainly: Cytotoxicity, CCK-8 assay. The data set is classed as cell-based. To be noted: CCK-8, 24 h, at high concentration of 300 μM. As for the experimental part:
The cytotoxicity of M1 and M2 was evaluated using CCK-8 assay in MIA PaCa-2 cells. Cells were seeded into 96-well plates at a density of 5 × 10^4 cells per well and placed in an incubator for 14 h. Subsequently, the sample was diluted into a series of different concentrations (0, 50, 100, 150, 200, 250, 300, and 350 μM) and incubated with cells for 24 h. After that, 10 μL of CCK-8 solution was added to each well and incubated for 2 h. The absorbance of blank wells (Ab), sample wells (As) and control wells (Ac) were measured with a microplate reader at a test wavelength of 450 nm and a reference wavelength of 690 nm. The cell viability rate (%) is equal to (As -Ab) / (Ac -Ab) ×100%. All experiments were repeated in triplicate.
Supplementary Fig. 21∣ Cellviability assay of Miapaca-2 cells treated with a series concentration of M1 and M2 for 24 h.
Tested by Cell Counting Kit-8 (Beyotime, C0039) The mean of results of six parallel experiments isshown and data were
expressed as mean ± SD (n=6).
(1 picture or pasted object on this page, not shown here)

A further data set relates to MIA PaCa-2 tumor. To be noted: mouse, in vivo, 16 mg/kg. As for the experimental part: In order to reduce systemic error and individual difference, we constructed the subcutaneous pancreatic cancer model in mice for quantitatively calculating of the metabolic data.
All the animal experiments were performed in accordance with the Guide for the Care and Use of Laboratory Animals approved by the Committee for Animal Research of the National Center for Nanoscience and Technology. The MIA PaCa-2 tumor-bearing mice were intravenously injected with ICG, M1 and M2 (16 mg/kg), respectively for in vivo fluorescence imaging with in vivo spectrum imaging system. Finally, mice were sacrificed to collect the major organs and tumors for ex vivo fluorescence imaging.

For mPEG-GPAKLVFFGC(IR783)GRGD [M1], in the data set with MIA PaCa-2 cells, the cytotoxicity result is listed as “no obvious cytotoxicity”. In addition, in the data set with MIA PaCa-2 tumor, the “AUC 0-120 h in tumor tissue relative to M2” value is reported as 3.6 times; the “reduction of tumor fluorescence signal between 12 h and 120 h” value is 27.6%; the “time to peak of tumor signal” value is around 12 h. Moreover, the “retention in tumor lasted” value with MIA PaCa-2 tumor (iv) is recorded as “up to 96 h”.

The record behind these values is PMC8776730 (Nature Communications, 2022).
